Data published in PMC11548754, “DRN facilitates WUS transcriptional regulatory activity by chromatin remodeling to regulate shoot stem cell homeostasis in Arabidopsis”.

How the values were obtained:
GST-WUS (WUSCHEL) = biological target: T1, GST-WUS (WUSCHEL) (Arabidopsis thaliana, UniProt Q9SB92 1-292); test: EMSA; EMSA kit (Thermo 20148), biotin-labeled probe; buffer, salt, pH and temperature not stated; details: protein: recombinant; tags: N-terminal GST (pGEX6p-1); chain copies: 2; label: biotin; blunt
T1 sequence: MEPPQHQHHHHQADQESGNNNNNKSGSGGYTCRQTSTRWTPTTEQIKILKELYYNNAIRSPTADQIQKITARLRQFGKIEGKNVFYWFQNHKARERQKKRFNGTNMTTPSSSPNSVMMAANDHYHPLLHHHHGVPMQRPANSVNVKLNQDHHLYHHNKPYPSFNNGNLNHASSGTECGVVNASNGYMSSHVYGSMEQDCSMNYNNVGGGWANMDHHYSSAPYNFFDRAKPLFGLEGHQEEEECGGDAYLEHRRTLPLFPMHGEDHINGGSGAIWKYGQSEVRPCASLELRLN

[1] = biological target: GST-WUS (WUSCHEL);8His-MBP-DRN (DORNROSCHEN) (Arabidopsis thaliana;Arabidopsis …, UniProt Q9SB92;Q9SAD4 1-292;1-328, |); test: EMSA; super-shift on adding DRN to WUS; EMSA kit (Thermo 20148), biotin-labeled probe; buffer, salt, pH and temperature not stated; details: protein: recombinant;recombinant; tags: N-terminal GST (pGEX6p-1);N-terminal 8His-MBP (modified pET28b); label: biotin; blunt
GST-WUS (WUSCHEL);8His-MBP-DRN (DORNROSCHEN), sequence (Q9SAD4 whole entry, one chain of several): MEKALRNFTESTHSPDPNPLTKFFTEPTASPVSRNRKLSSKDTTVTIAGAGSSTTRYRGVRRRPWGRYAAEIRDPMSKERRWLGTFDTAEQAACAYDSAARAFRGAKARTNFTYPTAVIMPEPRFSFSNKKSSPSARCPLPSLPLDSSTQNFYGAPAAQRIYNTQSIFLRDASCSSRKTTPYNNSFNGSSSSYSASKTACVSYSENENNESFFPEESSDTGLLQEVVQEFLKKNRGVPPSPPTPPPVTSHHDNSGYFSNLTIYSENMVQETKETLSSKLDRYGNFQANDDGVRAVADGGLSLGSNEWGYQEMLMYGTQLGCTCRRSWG

B1: CLV3 promoter probe (-1090 to -1064) (dsDNA)
DNA 1: GGCTCATATAATCCATTCAATTTATG
DNA 2: CATAAATTGAATGGATTATATGAGCC
- binding result (GST-WUS (WUSCHEL)): binds
- binding result [1]: binds
